Measurements as given in the RNAGym collection of RNA variant scans (doi:10.1073/pnas.2313332121).
Fewer inactive variants are shown than the library holds.

B1: TPR 5TU (parent)
chain: GGAUCUUCUCGAUCUAACAAAAAAGACAAAUCUGCCACAAAGCUUGAGAGCAUCUUCGGAUGCAGAGGCGGCAGCCUUCGGUGGCGCGAUAGCGCCAACGUUCUCAACUAUGACACGCAAAACGCGUGCUCCGUUGAAUGGAGUUUAUCAUG

Variants of: B1
Experiment: polymerase ribozyme fitness, log enrichment relative to wild type (log ratio); higher = more active; in vitro selection for triplet polymerase activity
Outline: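 PCR was used to build mutant libraries for each subunit of a heterodimeric triplet polymerase ribozyme, which were then transcribed. A single in vitro selection round, in triplicate, used a frozen incubation at −7 °C and recovered extended constructs by gel excision, streptavidin beads and RT-PCR. Fitness is the logarithm of genotype enrichment relative to wild-type enrichment, averaged over replicates with inverse-variance weights. The logarithm is base 2, and after Illumina sequencing only genotypes with ≥10 input reads and ≥1 read per output were kept.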
In the case of A21U C57A A142U, the “polymerase ribozyme fitness (log ratio)” value is reported as -0.38.
With A29C G94A A110U G124A A147U the “polymerase ribozyme fitness (log ratio)” value was ≤ -4.2.
With A37U U61A C85U the “polymerase ribozyme fitness (log ratio)” value was -2.89.
With C10G A17U A37C G59C C85A the “polymerase ribozyme fitness (log ratio)” value was ≤ -4.2.
In the case of G50C A73G C87A, the “polymerase ribozyme fitness (log ratio)” value is reported as ≤ -4.2.
In the case of A52G C93G C96U U104C A150G, the “polymerase ribozyme fitness (log ratio)” value is reported as ≤ -4.2.
In the case of A30C A41C G67C G83U G88U G141A, the “polymerase ribozyme fitness (log ratio)” value is reported as ≤ -4.2.
In the case of G50U C95G, the “polymerase ribozyme fitness (log ratio)” value is reported as -0.905.
For U45G C75U C103G C118G, the “polymerase ribozyme fitness (log ratio)” value was ≤ -4.2.
With U13C G94A G141U the “polymerase ribozyme fitness (log ratio)” value was 0.369.
In the case of G42U U45A C95U C149A, the “polymerase ribozyme fitness (log ratio)” value is reported as ≤ -4.2.
In the case of A49U U53A A64G G84U U90C C96A A97G G124U G140A, the “polymerase ribozyme fitness (log ratio)” value is reported as ≤ -4.2.
For G86A C118U G141C, the “polymerase ribozyme fitness (log ratio)” value was -1.77.
With C5U C51U G84A A150G the “polymerase ribozyme fitness (log ratio)” value was -2.47.
For U9G U56A, the “polymerase ribozyme fitness (log ratio)” value was -4.07.
In the case of A16U G58A C93A, the “polymerase ribozyme fitness (log ratio)” value is reported as -3.46.
For A20G G59A U77A C95U G117U C118G A122U, the “polymerase ribozyme fitness (log ratio)” value was ≤ -4.2.
In the case of U15G C18G A40U, the “polymerase ribozyme fitness (log ratio)” value is reported as -1.5.
With G11A A21U C51U U53A U55G C57U C96A A110C the “polymerase ribozyme fitness (log ratio)” value was ≤ -4.2.
With C76U A97G G100A A142G the “polymerase ribozyme fitness (log ratio)” value was ≤ -4.2.
With C51U A98U U135C U144A the “polymerase ribozyme fitness (log ratio)” value was -3.82.
With C43U C103G the “polymerase ribozyme fitness (log ratio)” value was ≤ -4.2.
For A21U A23G, the “polymerase ribozyme fitness (log ratio)” value was -2.94.
For U6G C35U C75A A98G A121U, the “polymerase ribozyme fitness (log ratio)” value was ≤ -4.2.
For U13G A106G, the “polymerase ribozyme fitness (log ratio)” value was -1.5.
In the case of A12G G92A U127A U139A G143A, the “polymerase ribozyme fitness (log ratio)” value is reported as ≤ -4.2.
With C54U G141A U151G the “polymerase ribozyme fitness (log ratio)” value was ≤ -4.2.
For C57G G74C, the “polymerase ribozyme fitness (log ratio)” value was ≤ -4.2.
With A17U A22U A26G G34U C57U G59A C93U the “polymerase ribozyme fitness (log ratio)” value was ≤ -4.2.
For A17U C129G, the “polymerase ribozyme fitness (log ratio)” value was -2.62.
For G58C C63G C96G, the “polymerase ribozyme fitness (log ratio)” value was -0.61.
In the case of C14G U78A G86A, the “polymerase ribozyme fitness (log ratio)” value is reported as ≤ -4.2.
With C36U C75G C96G A121U the “polymerase ribozyme fitness (log ratio)” value was ≤ -4.2.
With C18U A40C C93A the “polymerase ribozyme fitness (log ratio)” value was -2.24.
In the case of G58A G83U, the “polymerase ribozyme fitness (log ratio)” value is reported as 0.174.
For C96U C149U, the “polymerase ribozyme fitness (log ratio)” value was -0.874.
With C35G U139C the “polymerase ribozyme fitness (log ratio)” value was ≤ -4.2.
For U55G C87A C118U U130G, the “polymerase ribozyme fitness (log ratio)” value was ≤ -4.2.
In the case of A41G A98U C103G A138C, the “polymerase ribozyme fitness (log ratio)” value is reported as ≤ -4.2.
In the case of G48C G84C C85A A110U C125A, the “polymerase ribozyme fitness (log ratio)” value is reported as ≤ -4.2.
In the case of U55A U56A G80U U111A, the “polymerase ribozyme fitness (log ratio)” value is reported as ≤ -4.2.
With C32A G84A the “polymerase ribozyme fitness (log ratio)” value was -3.57.
With U45A C51U G74A C95A U135G the “polymerase ribozyme fitness (log ratio)” value was ≤ -4.2.
With A41C U135G the “polymerase ribozyme fitness (log ratio)” value was -3.54.
In the case of C96A A142U, the “polymerase ribozyme fitness (log ratio)” value is reported as -1.24.
With A22G G42C A52C G58A G68U C87G A142C the “polymerase ribozyme fitness (log ratio)” value was ≤ -4.2.
For C35U G86U C95G, the “polymerase ribozyme fitness (log ratio)” value was -3.9.
For C63A C85G C95U C118U, the “polymerase ribozyme fitness (log ratio)” value was -2.65.
In the case of A21U G50C, the “polymerase ribozyme fitness (log ratio)” value is reported as -3.57.
For C75G C85U A106C A115G G141U, the “polymerase ribozyme fitness (log ratio)” value was ≤ -4.2.
With G48A C57A C125U the “polymerase ribozyme fitness (log ratio)” value was -1.74.
With A52U G83A the “polymerase ribozyme fitness (log ratio)” value was -2.83.
For G50A A60C G86A, the “polymerase ribozyme fitness (log ratio)” value was -3.81.
In the case of A37U G86U, the “polymerase ribozyme fitness (log ratio)” value is reported as -3.44.
For G50A C54U U55A A73G, the “polymerase ribozyme fitness (log ratio)” value was ≤ -4.2.
With G68C A91C A106U U127A the “polymerase ribozyme fitness (log ratio)” value was ≤ -4.2.
In the case of G94A C96G, the “polymerase ribozyme fitness (log ratio)” value is reported as -2.1.
For U7G G11C A29C U82G C95U U109G, the “polymerase ribozyme fitness (log ratio)” value was ≤ -4.2.
For C54A U55A C103G, the “polymerase ribozyme fitness (log ratio)” value was ≤ -4.2.
For C14G C57A G92A C96U A107C G124U, the “polymerase ribozyme fitness (log ratio)” value was ≤ -4.2.
With A119G U146A the “polymerase ribozyme fitness (log ratio)” value was -0.399.
For C93U G117C C125A, the “polymerase ribozyme fitness (log ratio)” value was -0.271.
For U55A G62A C69G G71A, the “polymerase ribozyme fitness (log ratio)” value was ≤ -4.2.
In the case of A3G A19U U55C G84A, the “polymerase ribozyme fitness (log ratio)” value is reported as -0.956.
In the case of C57A C76G A113G G126A C129A U134G, the “polymerase ribozyme fitness (log ratio)” value is reported as ≤ -4.2.
In the case of U31C A60C G92A C99A, the “polymerase ribozyme fitness (log ratio)” value is reported as ≤ -4.2.
For G59C A142C, the “polymerase ribozyme fitness (log ratio)” value was -0.57.
In the case of C85G C99G C116G G136U, the “polymerase ribozyme fitness (log ratio)” value is reported as ≤ -4.2.
In the case of A26U G48A, the “polymerase ribozyme fitness (log ratio)” value is reported as -3.27.
With C75U C93G A121U C123U the “polymerase ribozyme fitness (log ratio)” value was -2.27.
With C87G G92C G126A the “polymerase ribozyme fitness (log ratio)” value was 0.48.
In the case of A21G C76G A97U, the “polymerase ribozyme fitness (log ratio)” value is reported as ≤ -4.2.
With A19G G42A A66C C85U A106U U148A the “polymerase ribozyme fitness (log ratio)” value was ≤ -4.2.
For C85U U134G, the “polymerase ribozyme fitness (log ratio)” value was -2.89.
For U15G A73U C93U A120G, the “polymerase ribozyme fitness (log ratio)” value was -2.43.
With C57U C87U C103G the “polymerase ribozyme fitness (log ratio)” value was -1.94.
For A39C G59U C76G U146G, the “polymerase ribozyme fitness (log ratio)” value was ≤ -4.2.
In the case of A23U A150G, the “polymerase ribozyme fitness (log ratio)” value is reported as ≤ -4.2.
In the case of A39G C118U, the “polymerase ribozyme fitness (log ratio)” value is reported as -1.27.
For A23U C85U U102A A107U U130G U135G A138C, the “polymerase ribozyme fitness (log ratio)” value was ≤ -4.2.
For U56A G58C C85U, the “polymerase ribozyme fitness (log ratio)” value was -0.365.
With A30U C38U the “polymerase ribozyme fitness (log ratio)” value was -3.76.
In the case of A12G U56A A60U G65U A91U C96G A120U, the “polymerase ribozyme fitness (log ratio)” value is reported as ≤ -4.2.
With C38G G140C the “polymerase ribozyme fitness (log ratio)” value was -4.11.
